Source: US20200247897A1, “THERAPEUTIC ANTIBODIES BASED ON MUTATED IGG HEXAMERS” (GENMAB B.V., priority 2017, published 2020)

How the values were obtained:
LS-411N = test: Drug combination screen (ATPlite, Synergy Score), LS-411N; type: cell-based, human; conditions: compound in combination with IgG1-hDR5-01-G56T-E430G + IgG1-hDR5-05-E430G; LS-411N; 72 hour ATPlite, 6x6 matrix
SNU-C2B = test: Drug combination screen (ATPlite, Synergy Score), SNU-C2B; conditions: compound in combination with IgG1-hDR5-01-G56T-E430G + IgG1-hDR5-05-E430G; SNU-C2B; 72 hour ATPlite, 6x6 matrix
HCT 116 = test: Drug combination screen (ATPlite, Synergy Score), HCT 116; conditions: compound in combination with IgG1-hDR5-01-G56T-E430G + IgG1-hDR5-05-E430G; HCT 116; 120 hour ATPlite, 6x6 matrix
DLD-1 = test: Drug combination screen (ATPlite, Synergy Score), DLD-1; conditions: compound in combination with IgG1-hDR5-01-G56T-E430G + IgG1-hDR5-05-E430G; DLD-1; 120 hour ATPlite, 6x6 matrix
SW480 = test: Drug combination screen (ATPlite, Synergy Score), SW480; type: cell-based, human; conditions: compound in combination with IgG1-hDR5-01-G56T-E430G + IgG1-hDR5-05-E430G; SW480; 72 hour ATPlite, 6x6 matrix

B1: TNF-related apoptosis-inducing ligand (protein, UniProt P50591 1-281, looked up)
Tumor necrosis factor ligand …: MAMMEVQGGPSLGQTCVLIVIFTVLLQSLCVAVTYVYFTNELKQMQDKYSKSGIACFLKEDDSYWDPNDEESMNSPCWQVKWQLRQLVRKMILRTSEETISTVQEKQQNISPLVRERGPQRVAAHITGTRGRSNTLSSPNSKNEKALGRKINSWESSRSGHSFLSNLHLRNGELVIHEKGFYYIYSQTYFRFQEEIKENTKNDKQMVQYIYKYTSYPDPILLMKSARNSCWSKDAEYGLYSIYQGGIFELKENDRIFVSVTNEHLIDMDHEASFFGAFLVG
Synergy Score LS-411N (LS-411N): 0.1 | Synergy Score SNU-C2B (SNU-C2B): 0.2 | Synergy Score HCT-116 (HCT 116): 0 | Synergy Score DLD-1 (DLD-1): 0 | Synergy Score SW480 (SW480): 0.9
